Test results as given in the supplement of paper PMC6757056.
± gives the standard deviation of the averaged measurements.

B1: library; a variant is named by its letters at N, in order (parent)
chain: GCUGUCACCGGUGUAUUACCCUAGUGGUCGACCGGUCUGAUGAGUCUNNNNNNAGACGAAACAGC

Key:
hypoxanthine [1] = variants of: B1; assay: normalized RNA/DNA level with ligand (relative to sTRSVctl = 100) (log10 (% of sTRSVctl)); ligand: hypoxanthine (xanthine aptamer); higher = less ribozyme self-cleavage, higher mRNA level; details: ligand concentration (+) RNA-Seq: 5 mM, HEK293T, reporter: mCherry (pCS4076), ligand present: yes
In short: (§1)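 Library plasmids encoding reporter-linked ribozyme switches (mCherry, or eGFP for some folinic acid experiments) were transfected into HEK293T at 4 µg per 6-well well. Ligand, when used, was added 1 h before transfection. Total RNA was extracted with EDTA 72 h later, then reverse-transcribed, amplified, barcoded and sequenced. RNA level was RNA reads over DNA reads, divided by a spiked-in non-cleaving control (or the top 25 sequences), ×100, log10; only sequences with ≥100 DNA reads were kept.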

hypoxanthine [2] = variants of: B1; assay: normalized RNA/DNA level without ligand (relative to sTRSVctl = 100) (log10 (% of sTRSVctl)); ligand: hypoxanthine (xanthine aptamer); higher = less ribozyme self-cleavage, higher mRNA level; details: HEK293T, reporter: mCherry (pCS4076), ligand present: no
In short: as §1

Variant	normalized RNA/DNA level with ligand (log10) (hypoxanthine [1])	normalized RNA/DNA level without ligand (log10) (hypoxanthine [2])
CACAAG	1.877 ± 0.0098	1.676 ± 0.013
CACACA	1.9 ± 0.036	1.78 ± 0.037
CACACG	1.96 ± 0.032	1.861 ± 0.017
CACACC	1.99 ± 0.035	1.929 ± 0.0057
AAACGC	1.91 ± 0.063	1.68 ± 0.021
UACGUU	1.956 ± 0.0074	1.86 ± 0.042
UACGUC	2.0228 ± 0.00028	1.94 ± 0.051
UACGUA	1.88 ± 0.09	1.829 ± 0.004
UACGUG	1.86 ± 0.063	1.6 ± 0.009
CAACGG	1.85 ± 0.08	1.42 ± 0.043
CAACGU	1.963 ± 0.0077	1.89 ± 0.025
GAAUAU	1.93 ± 0.043	1.8073 ± 0.00093
AACAUC	1.95 ± 0.022	2.02 ± 0.022
AACAUU	1.91 ± 0.053	1.873 ± 0.011
GACACA	1.934 ± 0.012	1.8467 ± 2.7e-05
GACACU	1.912 ± 0.0036	1.905 ± 0.008
GACCCA	1.928 ± 0.0094	1.833 ± 0.0075
CAAUAU	1.929 ± 0.016	1.811 ± 0.01
CAAUAG	1.905 ± 0.0064	1.69 ± 0.03
CAACCU	1.98 ± 0.049	1.911 ± 0.0025
CAACCA	1.95 ± 0.066	1.803 ± 0.0098
CAACCG	1.95 ± 0.096	1.89 ± 0.028
CAACCC	1.98 ± 0.012	1.855 ± 0.011
AAAUCU	1.94 ± 0.089	1.9 ± 0.039

Variant	normalized RNA/DNA level with ligand (log10) (hypoxanthine [1])	normalized RNA/DNA level without ligand (log10) (hypoxanthine [2])
AAAUCC	1.94 ± 0.055	1.829 ± 0.0029
UAAUCC	1.917 ± 0.015	1.84 ± 0.041
UAAUCA	1.955 ± 0.019	1.886 ± 0.0084
UACUUC	1.98 ± 0.05	2 ± 0.058
UACUUG	1.929 ± 0.0075	1.72 ± 0.064
UACUUA	1.95 ± 0.026	1.88 ± 0.033
UACCAC	1.88 ± 0.045	1.793 ± 0.016
UACCAU	1.914 ± 0.0031	1.832 ± 0.0068
GACGCC	1.9 ± 0.04	1.79 ± 0.054
GACGCA	1.91 ± 0.052	1.82 ± 0.034
GACGCG	1.872 ± 0.0041	1.51 ± 0.11
CACAUG	1.91 ± 0.075	1.857 ± 0.017
CACAUU	1.909 ± 0.017	1.86 ± 0.031
UACUCU	1.915 ± 0.0075	1.91 ± 0.026
UACUCG	1.929 ± 0.009	1.72 ± 0.072
UACUCC	2 ± 0.058	1.964 ± 0.011
AAAGAC	1.9 ± 0.039	1.82 ± 0.019
UACCCG	1.93 ± 0.073	1.692 ± 0.0093
UACCCA	1.96 ± 0.057	1.89 ± 0.024
UACCCU	1.9818 ± 0.00074	1.916 ± 0.015
GAAGCU	1.982 ± 0.015	1.84 ± 0.031
GAAGCC	1.948 ± 0.016	1.85 ± 0.041
UAACCA	1.941 ± 0.018	1.89 ± 0.042
UAACCU	1.983 ± 0.011	1.91 ± 0.04

Variant	normalized RNA/DNA level with ligand (log10) (hypoxanthine [1])	normalized RNA/DNA level without ligand (log10) (hypoxanthine [2])
AACUCC	2 ± 0.067	1.922 ± 0.011
AACUCU	1.9 ± 0.039	1.898 ± 0.015
AACUCA	1.975 ± 0.012	1.88 ± 0.023
CAGAAG	1.9 ± 0.028	1.59 ± 0.021
CAGAAU	1.9 ± 0.034	1.64 ± 0.072
AAAUGU	1.865 ± 0.013	1.633 ± 0.013
CACCAU	1.92 ± 0.021	1.8 ± 0.024
CACCAA	1.9 ± 0.032	1.79 ± 0.082
CACCAG	1.97 ± 0.057	1.81 ± 0.061
UACACG	1.87 ± 0.035	1.63 ± 0.02
UACACC	1.961 ± 0.0059	1.9 ± 0.027
UACACA	1.899 ± 0.0042	1.859 ± 0.012
GAACUG	1.87 ± 0.05	1.519 ± 0.0031
GAACUC	1.9377 ± 0.00012	1.9 ± 0.01
CACUAG	1.901 ± 0.0088	1.759 ± 0.0057
CACUAU	1.908 ± 0.018	1.845 ± 0.013
CACUAC	1.9 ± 0.07	1.8 ± 0.034
UACAGU	1.8101 ± 0.00016	1.52 ± 0.066
GAGACC	1.96 ± 0.048	1.82 ± 0.017
GACAAG	1.83 ± 0.043	1.36 ± 0.018
GACAAU	1.897 ± 0.017	1.815 ± 0.013
GACAAC	1.93 ± 0.072	1.73 ± 0.021
AACACU	1.92 ± 0.044	1.859 ± 0.018
CAACAG	1.92 ± 0.021	1.717 ± 0.013

Variant	normalized RNA/DNA level with ligand (log10) (hypoxanthine [1])	normalized RNA/DNA level without ligand (log10) (hypoxanthine [2])
CAGAGC	1.926 ± 0.019	1.74 ± 0.022
CAGAGU	1.97 ± 0.035	1.79 ± 0.056
UAAUUG	1.92 ± 0.051	1.74 ± 0.02
GACCAC	1.94 ± 0.022	1.835 ± 0.017
GACCAU	1.932 ± 0.0042	1.838 ± 0.0066
CAACUC	1.97 ± 0.028	1.96 ± 0.032
CAACUG	1.9 ± 0.045	1.84 ± 0.022
CAAUUC	1.93 ± 0.07	1.87 ± 0.058
AACGCA	1.9072 ± 0.0004	1.76 ± 0.03
UAAGCC	1.9849 ± 0.0019	1.876 ± 0.015
UAAGCA	1.89 ± 0.031	1.8271 ± 0.0017
UAAGCU	1.946 ± 0.013	1.874 ± 0.011
CACGUU	1.96 ± 0.024	1.864 ± 0.0061
CACGUG	1.92 ± 0.028	1.79 ± 0.095
CACGUC	1.98 ± 0.061	1.971 ± 0.005
CAAGAC	1.9181 ± 0.0013	1.825 ± 0.015
CAAGAU	1.94 ± 0.048	1.76 ± 0.048
GACGGA	1.92 ± 0.047	1.683 ± 0.0063
GACGGU	1.95 ± 0.036	1.797 ± 0.0024
GACGGC	1.95 ± 0.07	1.63 ± 0.055
GACGGG	1.885 ± 0.0056	1.41 ± 0.039
GACUAC	1.94 ± 0.026	1.804 ± 0.0039
GACUAG	1.837 ± 0.011	1.47 ± 0.045
CACGGG	1.84 ± 0.033	1.32 ± 0.019

Variant	normalized RNA/DNA level with ligand (log10) (hypoxanthine [1])	normalized RNA/DNA level without ligand (log10) (hypoxanthine [2])
CACGGA	1.912 ± 0.0058	1.8 ± 0.048
CACGGC	1.965 ± 0.003	1.87 ± 0.013
UACUGA	1.95 ± 0.019	1.74 ± 0.02
UACUGG	1.884 ± 0.015	1.491 ± 0.0069
UACUGC	1.97 ± 0.072	1.846 ± 0.0079
CAAGUG	1.92 ± 0.026	1.81 ± 0.042
CAAGUU	1.93 ± 0.021	1.939 ± 0.0037
CAAGUA	1.89 ± 0.054	1.779 ± 0.011
CACCUA	1.921 ± 0.0097	1.76 ± 0.11
CACCUG	2.01 ± 0.064	1.922 ± 0.009
CACCUC	1.99 ± 0.081	1.969 ± 0.011
UACGGU	1.847 ± 0.0077	1.59 ± 0.064
UACGCU	1.95 ± 0.067	1.846 ± 0.012
UACGCC	2 ± 0.079	1.82 ± 0.036
UACGCG	1.893 ± 0.018	1.62 ± 0.069
GACCGC	1.89 ± 0.029	1.7634 ± 0.0011
GACCGA	1.97 ± 0.032	1.8545 ± 0.00036
UACAAC	1.97 ± 0.035	1.82 ± 0.081
UACAAA	1.88 ± 0.063	1.755 ± 0.0034
AACGAU	1.9 ± 0.028	1.653 ± 0.011
